Results on one molecule are retold here after publication PMC4657161 (The Journal of Cell Biology, 2015).

This assay has as its target T1, Rab40A (on the HuProt array) (human, UniProt Q8WXH6 1-277).
T1 sequence: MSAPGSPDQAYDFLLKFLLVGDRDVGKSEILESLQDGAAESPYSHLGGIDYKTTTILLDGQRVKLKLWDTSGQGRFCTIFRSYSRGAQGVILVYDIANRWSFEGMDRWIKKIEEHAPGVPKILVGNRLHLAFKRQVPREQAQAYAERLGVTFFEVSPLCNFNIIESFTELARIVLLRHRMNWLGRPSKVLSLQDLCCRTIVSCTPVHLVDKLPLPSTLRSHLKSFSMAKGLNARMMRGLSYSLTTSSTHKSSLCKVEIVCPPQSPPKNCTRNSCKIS
Nature of the assay: peptide or protein array.

B1: HIS-RhoU (natural protein)
chain: not shown
For B1, the binding result was “binds”.
